Here are results for six molecules from US20260167699A1 (Chugai, published 2026).

The term Kd denotes a measure of binding affinity in units of concentration. High values mean a looser complex, low ones a tighter complex.

Test [1] addresses T1, FcγRIIIa extracellular domain with C-terminal His tag (allotype not given) (human, UniProt P08637 17-208).
T1 construct: extracellular domain; also called 3a
As to the kind of experiment: SPR (Biacore), captured antibody, FcγRIIIa analyte, 1:1 Langmuir fit. Background: In SPR one partner is held on a chip, and binding of the other changes the refractive index at the surface.

The target of test [2] is T1, FcγRIIIa extracellular domain with …. Kind of test: SPR; KD of GpH7-A5/GpH7-B3/GpL16-k0 for FcγRIIIa divided by KD of this antibody.
Procedure: (§1) The antibody of interest was analyzed for its interaction with FcγR using a BiaCore™ T100, BiaCore™ A100, or BiaCore™ 4000 surface plasmon resonance system (GE Healthcare Japan Corp.). The running buffer used was HBS-EP+ (GE Healthcare Japan Corp.). The assay temperature was set to 25° C. The sensor chips used were: a chip prepared by immobilizing antigenic peptides onto Series S Sensor Chip CM5 (GE Healthcare Japan Corp.) by the amine coupling method; a chip prepared by immobilizing antigenic peptides biotinylated in advance onto Series S Sensor Chip SA (certified) (GE Healthcare Japan Corp.) through their interaction; a chip prepared by immobilizing protein L (ACTIGEN, BioVision, Inc.) onto Series S Sensor Chip CM5 (GE Healthcare Japan Corp.); and a chip prepared by immobilizing protein A/G (Thermo Fisher Scientific K.K.) onto Series S Sensor Chip CM5 (GE Healthcare Japan Corp.). The antibody of interest was captured onto any of these chips and allowed to interact with FcγR diluted with a running buffer. The antibody captured on the chip was washed off through the reaction of 10 mM glycine-HCl (pH 1.5) to regenerate the chip, which was repetitively used.
For test [3] the target is unchanged. Kind of test: SPR; KD of GpH7-G1d/GpL16-k0 for FcγRIIIa divided by KD of this antibody.
Procedure: as §1
Test [4] addresses T2, FcγRIIIa (human, UniProt P08637 17-208).
T2 construct: extracellular domain; also called 3a
Kind of test: SPR (Biacore T100), antibody captured on protein L chip, FcγRIIIa as analyte, TBS(+), 25 C, 1:1 Langmuir fit.
Procedure: Specifically, their interaction with FcγRIIIa was analyzed using BiaCore™ T100 surface plasmon resonance system (GE Healthcare Japan Corp.). The running buffer used was the TBS(+) solution used in the preceding paragraph. The assay temperature was set to 25° C. Protein L was immobilized onto Series S Sensor Chip CM4 (GE Healthcare Japan Corp.) by the amine coupling method to prepare a chip. Each antibody of interest was captured onto the protein L-immobilized chip and allowed to interact with FcγRIIIa diluted with a running buffer. The antibody captured on the chip was washed off through the reaction of 10 mM glycine-HCl (pH 1.5) to regenerate the chip, which was repetitively used.
Each antibody was evaluated for its binding activity against FcγRIIIa with binding activity against FcγRIIIa and dissociation constant for FcγRIIIa as main indexes. […] Specifically, a sensorgram obtained by assay using BiaCore™ surface plasmon resonance Evaluation Software was globally fit into the 1:1 Langmuir model to calculate an association rate constant ka (L/mol/s) and a dissociation rate constant kd (1/s). From these values, the dissociation constant KD (mol/L) was calculated.

T2 sequence (P08637 other isoform, or with tags, fused parts or gaps): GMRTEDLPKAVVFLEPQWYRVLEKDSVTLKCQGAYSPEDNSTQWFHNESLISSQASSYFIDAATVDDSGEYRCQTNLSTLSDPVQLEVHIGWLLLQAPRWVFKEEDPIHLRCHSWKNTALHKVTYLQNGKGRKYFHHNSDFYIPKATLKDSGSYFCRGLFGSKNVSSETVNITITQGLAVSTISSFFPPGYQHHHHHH
T1 sequence (P08637 other isoform, or with tags, fused parts or gaps): as above

B1: GpH7-TA7/GpH7-B78/GpL16-k0 (antibody, human IgG1, kappa)
heavy 1: QVQLVQSGAEVKKPGASVTVSCKASGYTFTDYEMHWIRQPPGEGLEWIGAIDPKTGDTAYSESFQDRVTLTADKSTSTAYMELSSLTSEDTAVYYCTRFYSYTYWGQGTLVTVSSASTKGPSVFPLAPSSKSTSGGTAALGCLVKDYFPEPVTVSWNSGALTSGVHTFPAVLQSSGLYSLSSVVTVPSSSLGTQTYICNVNHKPSNTKVDKKVEPKSCDKTHTCPPCPAPEYLWGPSVFLFPPKPKDTLMISRTPEVTCVVVDVSHEDPEVKFNWYVDGVEVHNAKTKPREEQYNATYRVVSVLTVLHQDWLNGKEYKCKVSNKALPAPIEKTISKAKGQPREPQVYTLPPSRKELTKNQVSLTCLVKGFYPSDIAVEWESNGQPENNYKTTPPVLDSDGSFFLYSKLTVDKSRWQQGNVFSCSVMHEALHNRYTQKSLSLSP
heavy 2: QVQLVQSGAEVKKPGASVTVSCKASGYTFTDYEMHWIRQPPGEGLEWIGAIDPKTGDTAYSESFQDRVTLTADKSTSTAYMELSSLTSEDTAVYYCTRFYSYTYWGQGTLVTVSSASTKGPSVFPLAPSSKSTSGGTAALGCLVKDYFPEPVTVSWNSGALTSGVHTFPAVLQSSGLYSLSSVVTVPSSSLGTQTYICNVNHKPSNTKVDKKVEPKSCDKTHTCPPCPAPELLGGPDVFLFPPKPKDTLMISRTPEVTCVVVDVSHEDPEVKFNWYVDGVEVHNAKTKPREEQYNSTYRVVSVLTVLHQDWLNGKEYKCKVSNKALPLPEEKTISKAKGQPREPQVYTLPPSRDELTKNQVSLTCLVKGFYPSDIAVEWESNGQPENNYKTTPPVLDSDGSFFLYSKLTVDKSRWQQGNVFSCSVMHEALHNHYTQESLSLSP
light: DIVMTQSPLSLPVTPGEPASISCQASESLVHSNRNTYLHWYLQKPGQSPQLLIYKVSNRFSGVPDRFSGSGSGTDFTLKISRVEAEDVGVYYCSQNTHVPPTFGQGTKVEIERTVAAPSVFIFPPSDEQLKSGTASVVCLLNNFYPREAKVQWKVDNALQSGNSQESVTEQDSKDSTYSLSSTLTLSKADYEKHKVYACEVTHQGLSSPVTKSFNRGEC
notes: heterodimerized anti-glypican 3 IgG1; L234Y/G236W/S298A in one H chain, S239D/A330L/I332E in the other
As for B1, the dissociation constant (Kd) in test [1] turned out to be 4.7 nM. Moreover, the “KD ratio2” value in test [2] was 347 fold. Further, in test [3], the “KD ratio1” value came to 261 fold.

B2: GpH7-A5/GpH7-B3/GpL16-k0 (antibody, human IgG1, kappa)
heavy 1: not shown
heavy 2: not shown
light: DIVMTQSPLSLPVTPGEPASISCQASESLVHSNRNTYLHWYLQKPGQSPQLLIYKVSNRFSGVPDRFSGSGSGTDFTLKISRVEAEDVGVYYCSQNTHVPPTFGQGTKVEIERTVAAPSVFIFPPSDEQLKSGTASVVCLLNNFYPREAKVQWKVDNALQSGNSQESVTEQDSKDSTYSLSSTLTLSKADYEKHKVYACEVTHQGLSSPVTKSFNRGEC
notes: also called HeCon Ab
Turning to B2, in test [1], the Kd is 1600 nM. Besides, in test [2], the “KD ratio2” value stood at 1 fold. Moreover, the “KD ratio1” value in test [3] was determined as 0.75 fold.

B3: GpH7-TA7/GpH7-TA45/GpL16-k0 (antibody, human IgG1, kappa)
heavy 1: QVQLVQSGAEVKKPGASVTVSCKASGYTFTDYEMHWIRQPPGEGLEWIGAIDPKTGDTAYSESFQDRVTLTADKSTSTAYMELSSLTSEDTAVYYCTRFYSYTYWGQGTLVTVSSASTKGPSVFPLAPSSKSTSGGTAALGCLVKDYFPEPVTVSWNSGALTSGVHTFPAVLQSSGLYSLSSVVTVPSSSLGTQTYICNVNHKPSNTKVDKKVEPKSCDKTHTCPPCPAPEYLWGPSVFLFPPKPKDTLMISRTPEVTCVVVDVSHEDPEVKFNWYVDGVEVHNAKTKPREEQYNATYRVVSVLTVLHQDWLNGKEYKCKVSNKALPAPIEKTISKAKGQPREPQVYTLPPSRKELTKNQVSLTCLVKGFYPSDIAVEWESNGQPENNYKTTPPVLDSDGSFFLYSKLTVDKSRWQQGNVFSCSVMHEALHNRYTQKSLSLSP
heavy 2: QVQLVQSGAEVKKPGASVTVSCKASGYTFTDYEMHWIRQPPGEGLEWIGAIDPKTGDTAYSESFQDRVTLTADKSTSTAYMELSSLTSEDTAVYYCTRFYSYTYWGQGTLVTVSSASTKGPSVFPLAPSSKSTSGGTAALGCLVKDYFPEPVTVSWNSGALTSGVHTFPAVLQSSGLYSLSSVVTVPSSSLGTQTYICNVNHKPSNTKVDKKVEPKSCDKTHTCPPCPAPEYLWGPSVFLFPPKPKDTLMISRTPEVTCVVVDVSHEDPEVKFNWYVDGVEVHNAKTKPREEQYNATYRVVSVLTVLHQDWLNGKEYKCKVSNKALPAPIEKTISKAKGQPREPQVYTLPPSRDELTKNQVSLTCLVKGFYPSDIAVEWESNGQPENNYKTTPPVLDSDGSFFLYSKLTVDKSRWQQGNVFSCSVMHEALHNHYTQESLSLSP
light: DIVMTQSPLSLPVTPGEPASISCQASESLVHSNRNTYLHWYLQKPGQSPQLLIYKVSNRFSGVPDRFSGSGSGTDFTLKISRVEAEDVGVYYCSQNTHVPPTFGQGTKVEIERTVAAPSVFIFPPSDEQLKSGTASVVCLLNNFYPREAKVQWKVDNALQSGNSQESVTEQDSKDSTYSLSSTLTLSKADYEKHKVYACEVTHQGLSSPVTKSFNRGEC
notes: anti-glypican 3 IgG1 called homodimerized: L234Y/G236W/S298A in both H chains
The molecule B3 had an equilibrium dissociation constant (Kd) in test [1] of 3300 nM. The “KD ratio2” value in test [2] came to 0.49 fold. In addition, in test [3], the “KD ratio1” value was found to be 0.37 fold.

B4: H240-G1d-CD/H240-G1d-CD/L73 (antibody, human IgG1, kappa)
heavy: QDQLVQSGAEVKKPGASVKVSCKASGFNIKDTYIQWVRQAPGQGLEWMGRIDPLRKQTKYREKFEGRVTITADTSTNTAYMELSSLRSEDTAVYYCVRSGREFDYWGQGTLVTVSSASTKGPSVFPLAPSSKSTSGGTAALGCLVKDYFPEPVTVSWNSGALTSGVHTFPAVLQSSGLYSLSSVVTVPSSSLGTQTYICNVNHKPSNTKVDKKVEPKSCDKTHTCPPCPAPELLGGPSVFLFPPKPKDTLMISRTPEVTCVVVDVSHEDPEVKFNWYVDGVEVHNAKTKPREEQYNSTYRVVSVLTVLHQDWLNGKEYKCKVSNKALPAPIEKTISKAKGQPREPQVYTLPPSRDELTKNQVSLTCLVKGFYPSDIAVEWESGCRGDCLPENNYKTTPPVLDSDGSFFLYSKLTVDKSRWQQGNVFSCSVMHEALHNHYTQKSLSLSP
light: DIQMTQSPSSLSASVGDRVTITCRASQDIHKYIAWYQQKPGQAPRLLIQYTSTLQPGVPSRFSGSGSGTDYTFTISSLQPEDIATYYCLQYEQLRTFGGGTKVEIKRTVAAPSVFIFPPSDEQLKSGTASVVCLLNNFYPREAKVQWKVDNALQSGNSQESVTEQDSKDSTYSLSSTLTLSKADYEKHKVYACEVTHQGLSSPVTKSFNRGEC
notes: anti-EREG antibody with the RGD peptide inserted in the CH3 regions (control)
For the molecule B4, the Kd in test [4] turned out to be 310 nM.

B5: H240-Kn125/H240-Hl076-ma1/L73 (antibody, human IgG1, kappa)
heavy 1: QDQLVQSGAEVKKPGASVKVSCKASGFNIKDTYIQWVRQAPGQGLEWMGRIDPLRKQTKYREKFEGRVTITADTSTNTAYMELSSLRSEDTAVYYCVRSGREFDYWGQGTLVTVSSASTKGPSVFPLAPSSKSTSGGTAALGCLVKDYFPEPVTVSWNSGALTSGVHTFPAVLQSSGLYSLSSVVTVPSSSLGTQTYICNVNHKPSNTKVDKKVEPKSCDKTHTCPPCPAPELLGGPSVFLFPPKPKDTLMISRTPEVTCVVVDVSGCRGDCLEPEVKFNWYVDGVEVHNAKTKPREEQYNSTYRVVSVLTVLHQDWLNGKEYKCKVSNDALPMPIEETISKAKGQPREPQVYTLPPSRCELTKNQVSLSCAVKGFYPSDIAVEWESNGQPENNYKTTPPVLDSDGSFFLVSKLTVDKSRWQQGNVFSCSVMHEALHNHYTQKSLSLSP
heavy 2: QDQLVQSGAEVKKPGASVKVSCKASGFNIKDTYIQWVRQAPGQGLEWMGRIDPLRKQTKYREKFEGRVTITADTSTNTAYMELSSLRSEDTAVYYCVRSGREFDYWGQGTLVTVSSASTKGPSVFPLAPSSKSTSGGTAALGCLVKDYFPEPVTVSWNSGALTSGVHTFPAVLQSSGLYSLSSVVTVPSSSLGTQTYICNVNHKPSNTKVDKKVEPKSCDKTHTCPPCPAPEYQWGPMVFLFPPKPKDTLMISRTPEVTCVVVDVSDEEPEVKFNWYVDGVEVHNAKTKPREEQYNATYRVVSVLTVLHQDWLNGKEYKCKVSNKALPAPIEKTISKAKGQPREPQVCTLPPSRDELTKNQVSLWCLVKGFYPSDIAVEWESNGQPENNYKTTPPVLDSDGSFFLYSKLTVDKSRWQQGNVFSCSVMHEALHNHYTQKSLSLSP
light: DIQMTQSPSSLSASVGDRVTITCRASQDIHKYIAWYQQKPGQAPRLLIQYTSTLQPGVPSRFSGSGSGTDYTFTISSLQPEDIATYYCLQYEQLRTFGGGTKVEIKRTVAAPSVFIFPPSDEQLKSGTASVVCLLNNFYPREAKVQWKVDNALQSGNSQESVTEQDSKDSTYSLSSTLTLSKADYEKHKVYACEVTHQGLSSPVTKSFNRGEC
notes: heterodimerized anti-EREG antibody with the RGD peptide inserted in a loop region of the H240-Hl076 chain; also called H240-Kn125/H240-HI076-ma1/L73
In test [4], B5 had a Kd of 2.1 nM.

B6: H240-Kn125-CD/H240-Hl076/L73 (antibody, human IgG1, kappa)
heavy 1: QDQLVQSGAEVKKPGASVKVSCKASGFNIKDTYIQWVRQAPGQGLEWMGRIDPLRKQTKYREKFEGRVTITADTSTNTAYMELSSLRSEDTAVYYCVRSGREFDYWGQGTLVTVSSASTKGPSVFPLAPSSKSTSGGTAALGCLVKDYFPEPVTVSWNSGALTSGVHTFPAVLQSSGLYSLSSVVTVPSSSLGTQTYICNVNHKPSNTKVDKKVEPKSCDKTHTCPPCPAPELLGGPSVFLFPPKPKDTLMISRTPEVTCVVVDVSHEEPEVKFNWYVDGVEVHNAKTKPREEQYNSTYRVVSVLTVLHQDWLNGKEYKCKVSNDALPMPIEETISKAKGQPREPQVYTLPPSRCELTKNQVSLSCAVKGFYPSDIAVEWESNGQPENNYKTTPPVLDSDGSFFLVSKLTVDKSRWQQGNVFSCSVMHEALHNHYTQKSLSLSP
heavy 2: QDQLVQSGAEVKKPGASVKVSCKASGFNIKDTYIQWVRQAPGQGLEWMGRIDPLRKQTKYREKFEGRVTITADTSTNTAYMELSSLRSEDTAVYYCVRSGREFDYWGQGTLVTVSSASTKGPSVFPLAPSSKSTSGGTAALGCLVKDYFPEPVTVSWNSGALTSGVHTFPAVLQSSGLYSLSSVVTVPSSSLGTQTYICNVNHKPSNTKVDKKVEPKSCDKTHTCPPCPAPEYQWGPMVFLFPPKPKDTLMISRTPEVTCVVVDVSDEEPEVKFNWYVDGVEVHNAKTKPREEQYNATYRVVSVLTVLHQDWLNGKEYKCKVSNKALPAPIEKTISKAKGQPREPQVCTLPPSRDELTKNQVSLWCLVKGFYPSDIAVEWESGCRGDCLPENNYKTTPPVLDSDGSFFLYSKLTVDKSRWQQGNVFSCSVMHEALHNHYTQKSLSLSP
light: DIQMTQSPSSLSASVGDRVTITCRASQDIHKYIAWYQQKPGQAPRLLIQYTSTLQPGVPSRFSGSGSGTDYTFTISSLQPEDIATYYCLQYEQLRTFGGGTKVEIKRTVAAPSVFIFPPSDEQLKSGTASVVCLLNNFYPREAKVQWKVDNALQSGNSQESVTEQDSKDSTYSLSSTLTLSKADYEKHKVYACEVTHQGLSSPVTKSFNRGEC
notes: heterodimerized anti-EREG antibody with the RGD peptide inserted in a CH3 region (control); also called H240-Kn125-CD/H240-HI076/L73
For the molecule B6, in test [4], the dissociation constant (Kd) came out at 0.85 nM.
